Experimental data reported in PMC4414246.

B1: TAR DNA (structured_DNA)
DNA: GGCAGATCTGAGCCTGGGAGCTCTCTGCC
B2: U1hpII RNA (structured_RNA)
RNA: AGCUUAUCCAUUGCACCGGAUAAGCU

Columns and labels:
Test in all cases: fluorescence polarization
U1A L49A = U1A L49A (UniProt P09012 10-89, L49A)
U1A M51K = U1A M51K (UniProt P09012 10-89, M51K)
U1A E19A = U1A E19A (UniProt P09012 10-89, E19A)
U1A E19K = U1A E19K (UniProt P09012 10-89, E19K)
U1A E19S = U1A E19S (UniProt P09012 10-89, E19S)
U1A L49K = U1A L49K (UniProt P09012 10-89, L49K)
dK50dM51 E19S = dK50dM51 E19S (UniProt P09012 10-89, E19S;del50-51)
U1A M51A = U1A M51A (UniProt P09012 10-89, M51A)
U1A E19F = U1A E19F (UniProt P09012 10-89, E19F)
dK50dM51 E19K = dK50dM51 E19K (UniProt P09012 10-89, E19K;del50-51)
U1A = U1A (UniProt P09012 10-89)
U1A E19S:Y13Q = U1A E19S:Y13Q (UniProt P09012 10-89, Y13Q;E19S)
U1A E19S:N15V = U1A E19S:N15V (UniProt P09012 10-89, N15V;E19S)
U1A E19A:N15V = U1A E19A:N15V (UniProt P09012 10-89, N15V;E19A)
U1A L49A:E19A = U1A L49A:E19A (UniProt P09012 10-89, E19A;L49A)
U1A M51A:E19A = U1A M51A:E19A (UniProt P09012 10-89, E19A;M51A)

Binder | Kd (U1A L49A) [µM] | Kd (U1A M51K) [µM] | Kd (U1A E19A) [µM] | Kd (U1A E19K) [µM] | Kd (U1A E19S) [µM] | Kd (U1A L49K) [µM] | Kd (dK50dM51 E19S) [µM] | Kd (U1A M51A) [µM] | Kd (U1A E19F) [µM] | Kd (dK50dM51 E19K) [µM] | Kd (U1A) [µM] | Kd (U1A E19S:Y13Q) [µM] | Kd (U1A E19S:N15V) [µM] | Kd (U1A E19A:N15V) [µM] | Kd (U1A L49A:E19A) [µM] | Kd (U1A M51A:E19A) [µM]
B1 | 88.2 ± 22 | 54.3 ± 7.9 | 100 ± 33.4 | 12.3 ± 2 | 91.9 ± 33.4 | 19.5 ± 2.9 | 59.9 ± 14.2 | 179 ± 37.5 | 156 ± 80 | 29.8 ± 5.8 | 146 ± 46 |  |  |  |  | 
B2 | < 0.01 |  |  |  | 11.4 ± 1.6 |  |  |  | 36.1 ± 6.8 |  |  | 63.6 ± 8.9 | 15.1 ± 2 | 48.4 ± 12.4 | 11.7 ± 2.1 | 15.8 ± 2.7
